Molecular target: the molecule itself
Assay: crystal structure

Row | Protein | stoichiometry N
1 | R182K-AfUGM (enzyme, Aspergillus fumigatus) THPDISVDVLVIGAGPTGLGAAKRLNQIDGPSWMIVDSNETPGGLASTDVTPEGFLYDVGGHVIFSHYKYFDDCLDEALPKEDDWYTHQRISYVRCQGQWVPYPFQNNISMLPKEEQVKCIDGMIDAALEARVANTKPKTFDEWIVRMMGTGIADLFMRPYNFKVWAVPTTKMQCAWLGEKVAAPNLKAVTTNVILGKTAGNWGPNATFRFPARGGTGGIWIAVANTLPKEKTRFGEKGKVTKVNANNKTVTLQDGTTIGYKKLVSTMAVDFLAEAMNDQELVGLTKQLFYSSTHVIGVGVRGSRPERIGDKCWLYFPEDNCPFYRATIFSNYSPYNQPEASKKLPTMQLADGSRPQSTEAKEGPYWSIMLEVSESSMKPVNQETILADCIQGLVNTEMLKPTDEIVSTYHRRFDHGYPTPTLEREGALTQILPKLQDKDIWSRGRFGSWRYEVGNQDHSFMLGVEAVDNIVNGAVELTLNYPDFVNGRQNTERRLVDGAQVFAKSKAQ | 4
2 | R327K-AfUGM (enzyme, Aspergillus fumigatus) THPDISVDVLVIGAGPTGLGAAKRLNQIDGPSWMIVDSNETPGGLASTDVTPEGFLYDVGGHVIFSHYKYFDDCLDEALPKEDDWYTHQRISYVRCQGQWVPYPFQNNISMLPKEEQVKCIDGMIDAALEARVANTKPKTFDEWIVRMMGTGIADLFMRPYNFKVWAVPTTKMQCAWLGERVAAPNLKAVTTNVILGKTAGNWGPNATFRFPARGGTGGIWIAVANTLPKEKTRFGEKGKVTKVNANNKTVTLQDGTTIGYKKLVSTMAVDFLAEAMNDQELVGLTKQLFYSSTHVIGVGVRGSRPERIGDKCWLYFPEDNCPFYKATIFSNYSPYNQPEASKKLPTMQLADGSRPQSTEAKEGPYWSIMLEVSESSMKPVNQETILADCIQGLVNTEMLKPTDEIVSTYHRRFDHGYPTPTLEREGALTQILPKLQDKDIWSRGRFGSWRYEVGNQDHSFMLGVEAVDNIVNGAVELTLNYPDFVNGRQNTERRLVDGAQVFAKSKAQ | 4
